Results from article PMC10576442, “Cullin‐associated and neddylation‐dissociated 1 regulate reprogramming of lipid metabolism through SKP1‐Cullin‐1‐F‐box^FBXO11‐mediated heterogeneous nuclear ribonucleoprotein A2/B1 ubiquitination and promote hepatocellular carcinoma” (Clinical and Translational Medicine, 2023).

Biological target: T1, HA-FBXO11 fusion protein expressed in E. coli (UniProt Q86XK2 1-927)
T1 construct: FBXO11 with an HA tag, expressed in E. coli; The methods of the GST pull-down speak of total cell lysates, the results of purified proteins from E. coli; source: E. coli, purified
T1 sequence (looked up): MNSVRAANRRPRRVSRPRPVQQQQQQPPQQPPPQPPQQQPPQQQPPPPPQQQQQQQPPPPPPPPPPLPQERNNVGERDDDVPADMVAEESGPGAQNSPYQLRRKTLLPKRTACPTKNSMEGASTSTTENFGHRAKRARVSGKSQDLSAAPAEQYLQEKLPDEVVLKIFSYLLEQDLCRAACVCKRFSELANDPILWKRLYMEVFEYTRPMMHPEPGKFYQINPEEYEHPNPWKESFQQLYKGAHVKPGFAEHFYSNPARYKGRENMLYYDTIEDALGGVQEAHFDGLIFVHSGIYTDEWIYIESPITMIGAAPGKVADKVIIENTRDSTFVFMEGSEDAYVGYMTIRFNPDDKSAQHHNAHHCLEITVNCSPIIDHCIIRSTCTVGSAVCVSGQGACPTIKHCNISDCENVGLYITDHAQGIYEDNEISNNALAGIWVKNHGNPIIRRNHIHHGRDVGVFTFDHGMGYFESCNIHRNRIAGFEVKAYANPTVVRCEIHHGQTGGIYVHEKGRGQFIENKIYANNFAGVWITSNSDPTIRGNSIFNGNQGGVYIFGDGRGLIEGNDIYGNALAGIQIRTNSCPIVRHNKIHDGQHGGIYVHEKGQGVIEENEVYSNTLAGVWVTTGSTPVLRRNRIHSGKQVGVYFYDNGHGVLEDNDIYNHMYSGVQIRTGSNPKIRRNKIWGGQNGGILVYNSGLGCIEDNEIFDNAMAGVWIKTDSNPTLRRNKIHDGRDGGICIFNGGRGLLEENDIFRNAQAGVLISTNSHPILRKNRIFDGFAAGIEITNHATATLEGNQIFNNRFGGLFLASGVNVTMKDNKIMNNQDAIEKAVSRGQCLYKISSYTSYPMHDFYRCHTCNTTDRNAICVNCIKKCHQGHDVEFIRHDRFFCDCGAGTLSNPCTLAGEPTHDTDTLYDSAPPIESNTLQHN
Test: pull-down; GST pull-down (Magne GST pull-down system), GST-hnRNPA2B1 immobilised on magnetic beads, overnight at 4 °C, HA-FBXO11 expressed in E. coli, western blot
Conditions: both partners purified

binding result: binds
B1: GST-hnRNPA2B1 (natural protein, UniProt P22626 1-353, looked up)
chain: MEKTLETVPLERKKREKEQFRKLFIGGLSFETTEESLRNYYEQWGKLTDCVVMRDPASKRSRGFGFVTFSSMAEVDAAMAARPHSIDGRVVEPKRAVAREESGKPGAHVTVKKLFVGGIKEDTEEHHLRDYFEEYGKIDTIEIITDRQSGKKRGFGFVTFDDHDPVDKIVLQKYHTINGHNAEVRKALSRQEMQEVQSSRSGRGGNFGFGDSRGGGGNFGPGPGSNFRGGSDGYGSGRGFGDGYNGYGGGPGGGNFGGSPGYGGGRGGYGGGGPGYGNQGGGYGGGYDNYGGGNYGSGNYNDFGNYNQQPSNYGPMKSGNFGGSRNMGGPYGGGNYGPGGSGGSGGYGGRSRY
notes: hnRNPA2B1 as a GST fusion protein; source: E. coli BL21 (DE3), purified (GST-tag purification resin)
